This note sets out measurements from US20160116473A1 (KOREA INSTITUTE OF RADIOLOGICAL AND MEDICAL SCIENCES, published 2016).

The test addresses T1, Signal transducer and activator of transcription 3 (STAT3) (human, UniProt P40763 2-770).
T1 construct: Endogenous protein in cell lysates (co-immunoprecipitation) or in fixed cells and tissues (PLA)
In words: co-immunoprecipitation from Hep-2 and RR-Hep-2 cell lysates, immunoblot. How it is done:
Cells were lysed with nonyl phenoxypolyethoxylethanol-40 (NP-40), and the lysates were then precipitated with a negative control mouse antibody (Santa Cruz Biotechnology Inc.) or a mouse monoclonal antibody against ERp57 (Santa Cruz Biotechnology Inc.). Afterwards, immune complexes were collected using protein G-Sepharose and washed 3 times, and SDS sample buffer was added thereto. The samples were size-fractionated by electrophoresis.
For orientation: In western blotting, separated proteins are transferred to a membrane and probed.

T1 sequence (P40763 2-770 limits assumed): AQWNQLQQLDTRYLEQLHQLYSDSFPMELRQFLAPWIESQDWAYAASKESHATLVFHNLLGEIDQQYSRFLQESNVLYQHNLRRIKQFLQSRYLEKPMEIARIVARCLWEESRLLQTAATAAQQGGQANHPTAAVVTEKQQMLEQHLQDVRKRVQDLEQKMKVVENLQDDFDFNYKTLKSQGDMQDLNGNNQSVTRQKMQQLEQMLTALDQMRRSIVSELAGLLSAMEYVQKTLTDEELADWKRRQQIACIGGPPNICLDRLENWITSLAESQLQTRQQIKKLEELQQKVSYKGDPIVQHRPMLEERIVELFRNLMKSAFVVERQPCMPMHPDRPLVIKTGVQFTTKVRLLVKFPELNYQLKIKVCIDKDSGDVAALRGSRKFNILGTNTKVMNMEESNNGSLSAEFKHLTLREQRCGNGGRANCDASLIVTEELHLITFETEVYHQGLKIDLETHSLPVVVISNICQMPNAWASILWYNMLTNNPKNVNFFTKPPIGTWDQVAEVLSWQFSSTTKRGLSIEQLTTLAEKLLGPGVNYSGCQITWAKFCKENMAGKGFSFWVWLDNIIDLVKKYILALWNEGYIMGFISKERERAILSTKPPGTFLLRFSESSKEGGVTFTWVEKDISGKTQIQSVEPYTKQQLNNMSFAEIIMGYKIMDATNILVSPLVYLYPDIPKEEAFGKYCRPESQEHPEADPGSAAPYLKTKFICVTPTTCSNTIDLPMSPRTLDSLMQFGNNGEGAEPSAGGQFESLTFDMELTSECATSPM

B1: ERp57 (enzyme, human, UniProt P30101 25-505, looked up)
chain: SDVLELTDDNFESRISDTGSAGLMLVEFFAPWCGHCKRLAPEYEAAATRLKGIVPLAKVDCTANTNTCNKYGVSGYPTLKIFRDGEEAGAYDGPRTADGIVSHLKKQAGPASVPLRTEEEFKKFISDKDASIVGFFDDSFSEAHSEFLKAASNLRDNYRFAHTNVESLVNEYDDNGEGIILFRPSHLTNKFEDKTVAYTEQKMTSGKIKKFIQENIFGICPHMTEDNKDLIQGKDLLIAYYDVDYEKNAKGSNYWRNRVMMVAKKFLDAGHKLNFAVASRKTFSHELSDFGLESTAGEIPVVAIRTAKGEKFVMQEEFSRDGKALERFLQDYFDGNLKRYLKSEPIPESNDGPVKVVVAENFDEIVNNENKDVLIEFYAPWCGHCKNLEPKYKELGEKLSKDPNIVIAKMDATANDVPSPYEVRGFPTIYFSPANKKLNPKKYEGGRELSDFISYLQREATNPPVIQEEKPKKKKKAQEDL
notes: Endogenous protein in cell lysates (co-immunoprecipitation) or in fixed cells and tissues (PLA); also called protein disulfide isomerase family A member 3; PDIA3
B1: the binding result is “binds”.
